Data: US20220119534A1 (DRAGONFLY THERAPEUTICS, published 2022)
Where a chain is given by its changes, count along the chain named. Names and notes keep the numbering of the source. Values joined by “and” are separate entries in the source; they are usually repeats but may differ in a detail not shown here. Equal entries are not always repeated.

Key:
mFc-cNKG2D [1] = biological target: T1, mFc-cNKG2D (cynomolgus monkey, UniProt P61252 73-216); assay: SPR Biacore 37 C; mFc-tagged cyno NKG2D dimer, TriNKET as analyte; 1:1 kinetic fit; average of 4
T1 construct: extracellular domain; Made in house (Dragonfly Tx); also called recombinant cyno NKG2D extracellular domain (ECD); mFc-tagged cyno NKG2D dimer; not shown: mouse Fc tag
T1 sequence (looked up): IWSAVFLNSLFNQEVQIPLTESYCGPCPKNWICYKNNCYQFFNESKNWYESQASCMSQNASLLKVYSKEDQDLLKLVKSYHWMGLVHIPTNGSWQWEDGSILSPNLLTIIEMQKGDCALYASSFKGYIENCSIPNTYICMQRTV

mFc-cNKG2D [2] = biological target: T1, mFc-cNKG2D; assay: SPR Biacore 37 C; mFc-tagged cyno NKG2D dimer, TriNKET as analyte; steady state affinity fit; average of 4
Human CD32a H131 = biological target: T2, Human CD32a H131 (human, UniProt P12318 36-218, limits assumed, biotinylated); assay: SPR, steady state fit
T2 construct: Bought recombinant receptor; also called hFcγRIIa H131
T2 sequence (looked up): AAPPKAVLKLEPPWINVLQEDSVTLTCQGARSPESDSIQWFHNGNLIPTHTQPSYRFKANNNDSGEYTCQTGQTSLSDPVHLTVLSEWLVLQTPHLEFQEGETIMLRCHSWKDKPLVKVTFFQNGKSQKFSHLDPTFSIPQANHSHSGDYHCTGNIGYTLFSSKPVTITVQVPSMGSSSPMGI

Human CD32a R131 = biological target: T3, Human CD32a R131 (human, UniProt P12318 36-218, limits assumed, biotinylated); assay: SPR, steady state fit
T3 construct: Bought recombinant receptor; also called hFcγRIIa R131
T3 sequence (looked up): T2 sequence (looked up) with H132R

Human CD16a F158 [3] = biological target: T4, Human CD16a F158 (human, UniProt P08637 17-208, biotinylated); assay: SPR, steady state fit
T4 construct: Bought recombinant receptor; also called hFcγRIIIa F158

Cynomolgus CD16 [4] = biological target: T5, Cynomolgus CD16 (cynomolgus monkey, UniProt Q8SPW2 17-208, biotinylated); assay: SPR, steady state fit
T5 construct: Bought recombinant receptor; also called cFcγRIII; Cynomolgus FcγRIII

Human CLEC12A-His = biological target: T6, Human CLEC12A-His (human, UniProt Q5QGZ9 65-265); assay: SPR; control sample (CST pH 7.0 study)
T6 construct: Recombinant soluble protein made in house; also called hCLEC12A-His; hCLEC12A; not shown: His tag
T6 sequence: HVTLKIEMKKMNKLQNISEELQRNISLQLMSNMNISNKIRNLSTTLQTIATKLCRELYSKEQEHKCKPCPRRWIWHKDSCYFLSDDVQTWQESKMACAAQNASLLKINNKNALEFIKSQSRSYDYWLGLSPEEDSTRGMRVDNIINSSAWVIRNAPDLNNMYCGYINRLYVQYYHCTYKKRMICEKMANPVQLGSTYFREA

mFc-hNKG2D = biological target: T7, mFc-hNKG2D (human, UniProt P26718 73-216); assay: SPR; control sample (CST pH 7.0 study)
T7 construct: extracellular domain; Recombinant mFc-tagged NKG2D dimer, made in house; also called human NKG2D; not shown: mouse Fc tag
T7 sequence (looked up): T1 sequence (looked up) with N43D, I133T

Human CD16a V158 = biological target: T8, Human CD16a V158 (human, UniProt P08637 17-208, biotinylated); assay: SPR; control sample (CST pH 7.0 study)
T8 construct: Bought recombinant receptor; also called hCD16a (V158); hFcγRIIIa V158

Human CD16a F158 [5] = biological target: T4, Human CD16a F158; assay: SPR, steady state fit; average for AB0192
Cynomolgus CD16 [6] = biological target: T5, Cynomolgus CD16; assay: SPR, steady state fit; average for AB0192
[7] = biological target: T9, mFc-hNKG2D (recombinant mFc-tagged human NKG2D dimer) (human, UniProt P26718 73-216); assay: SPR; control sample
T9 construct: extracellular domain; Made in house; not shown: mouse Fc tag
T9 sequence (looked up): T1 sequence (looked up) with N43D, I133T

[8] = biological target: T10, Human CD16a V158 (FcγRIIIa V158) (human, UniProt P08637 17-208, biotinylated); assay: SPR; control sample
T10 construct: Bought recombinant receptor; also called hCD16aV; hFcγRIIIa V158

[9] = biological target: T11, Human CLEC12A-His (recombinant, K244 WT) (human, UniProt Q5QGZ9 65-265); assay: SPR, two-state fit; control sample
T11 construct: Made in house (Dragonfly Tx); also called hCLEC12A; hCLEC12A-His; not shown: His tag
T11 sequence: T6 sequence

[10] = biological target: T9, mFc-hNKG2D (recombinant mFc-tagged …); assay: SPR; after pH 5.0, 40C, 2 wks (n = 2)
[11] = biological target: T12, recombinant human CD16a V158 (human, UniProt P08637 17-208, biotinylated); assay: SPR 25C
T12 construct: also called FcγRIIIa V158; hCD16aV

[12] = biological target: T13, recombinant human CD16a F158 (human, UniProt P08637 17-208); assay: SPR 25C
T13 construct: also called FcγRIIIa F158
T13 sequence (P08637 17-208 limits assumed): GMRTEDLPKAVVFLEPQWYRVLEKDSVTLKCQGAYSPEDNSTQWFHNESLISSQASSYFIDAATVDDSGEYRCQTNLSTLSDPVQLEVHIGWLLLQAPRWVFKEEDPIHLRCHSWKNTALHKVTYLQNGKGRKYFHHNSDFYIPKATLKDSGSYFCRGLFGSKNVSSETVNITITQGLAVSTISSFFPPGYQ

T4 sequence (P08637 17-208 limits assumed): as above
T5 sequence (Q8SPW2 17-208 limits assumed): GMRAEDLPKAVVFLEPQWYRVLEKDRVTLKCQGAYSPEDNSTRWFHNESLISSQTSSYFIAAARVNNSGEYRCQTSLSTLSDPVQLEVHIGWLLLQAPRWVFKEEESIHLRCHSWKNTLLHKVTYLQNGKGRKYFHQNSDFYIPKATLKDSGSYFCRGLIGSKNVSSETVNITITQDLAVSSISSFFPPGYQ
T10 sequence (P08637 17-208 F176V limits assumed): as the sequence (P08637 17-208 limits assumed) above, with F160V counted along it
T8 sequence (P08637 17-208 F176V limits assumed): as the sequence (P08637 17-208 limits assumed) above, with F160V counted along it
T12 sequence (P08637 17-208 F176V limits assumed): as the sequence (P08637 17-208 limits assumed) above, with F160V counted along it

B1: F3'-1602 TriNKET (bispecific antibody, human IgG1, kappa)
chain: QLQLQESGPGLVKPSETLSLTCTVSGFSLTNYGLHWIRQPPGKCLEWIGVIWSGGKTDYNPSLKSRVTISKDTSKNQFSLKLSSVQAADTAVYYCAKYDYDDSLDYWGQGTLVTVSSGGGGSGGGGSGGGGSGGGGSDIQMTQSPSSLSASVGDRVTITCHASQNINFWLSWYQQKPGKAPKLLIYEASNLHTGVPSRFSGSGSGTRFTLTISSLQPEDIATYYCQQSHSYPLTFGCGTKLEIKGSDKTHTCPPCPAPELLGGPSVFLFPPKPKDTLMISRTPEVTCVVVDVSHEDPEVKFNWYVDGVEVHNAKTKPREEQYNSTYRVVSVLTVLHQDWLNGKEYKCKVSNKALPAPIEKTISKAKGQPREPRVYTLPPCRDELTKNQVSLTCLVKGFYPSDIAVEWESNGQPENNYKTTPPVLVSDGSFTLYSKLTVDKSRWQQGNVFSCSVMHEALHNHYTQKSLSLSPG
heavy: EVQLVESGGGLVKPGGSLRLSCAASGFTFSSYSMNWVRQAPGKGLEWVSSISSSSSYIYYADSVKGRFTISRDNAKNSLYLQMNSLRAEDTAVYYCARGAPIGAAAGWFDPWGQGTLVTVSSASTKGPSVFPLAPSSKSTSGGTAALGCLVKDYFPEPVTVSWNSGALTSGVHTFPAVLQSSGLYSLSSVVTVPSSSLGTQTYICNVNHKPSNTKVDKKVEPKSCDKTHTCPPCPAPELLGGPSVFLFPPKPKDTLMISRTPEVTCVVVDVSHEDPEVKFNWYVDGVEVHNAKTKPREEQYNSTYRVVSVLTVLHQDWLNGKEYKCKVSNKALPAPIEKTISKAKGQPREPQVCTLPPSRDELTENQVSLTCLVKGFYPSDIAVEWESNGQPENNYKTTPPVLDSDGSFFLYSWLTVDKSRWQQGNVFSCSVMHEALHNHYTQKSLSLSPG
light: DIQMTQSPSSVSASVGDRVTITCRASQGISSWLAWYQQKPGKAPKLLIYAASSLQSGVPSRFSGSGSGTDFTLTISSLQPEDFATYYCQQGVSFPRTFGGGTKVEIKRTVAAPSVFIFPPSDEQLKSGTASVVCLLNNFYPREAKVQWKVDNALQSGNSQESVTEQDSKDSTYSLSSTLTLSKADYEKHKVYACEVTHQGLSSPVTKSFNRGEC
notes: Trispecific F3' format: CLEC12A scFv-Fc paired with NKG2D Fab-Fc; Stressed and control samples of the stability studies are the same molecule; also called AB0237
mFc-cNKG2D [1]
  koff: 0.141 s⁻¹
  kon: 168000 M⁻¹ s⁻¹
mFc-cNKG2D [2]
  Kd: 828 nM

B2: AB0192 TriNKET (other)
chain: EVQLVESGGGVVQPGGSLRLSCAASGFTFNAFGMHWVRQAPGKCLEWVAFISSGSTSIYYANTVKGRFTISRDNSKNTLYLQMNSLRAEDTAVYYCARDGYPTGGAMDYWGQGTSVTVSSGGGGSGGGGSGGGGSGGGGSDIQMTQSPSSLSASVGDRVTITCKASQDIYNYLSWFQQKPGKAPKPLIYRANILVSGVPSRFSGSGSGQDYTFTISSLQPEDIATYYCLQFDAFPFTFGCGTKLEIKGSDKTHTCPPCPAPELLGGPSVFLFPPKPKDTLMISRTPEVTCVVVDVSHEDPEVKFNWYVDGVEVHNAKTKPREEQYNSTYRVVSVLTVLHQDWLNGKEYKCKVSNKALPAPIEKTISKAKGQPREPRVYTLPPCRDELTKNQVSLTCLVKGFYPSDIAVEWESNGQPENNYKTTPPVLVSDGSFTLYSKLTVDKSRWQQGNVFSCSVMHEALHNHYTQKSLSLSPG
heavy: B1 heavy
light: B1 light
notes: the condition stands under assay; also called AB0192 Lot AB0192-005
Human CD32a H131
  Kd: 1040 nM and 921 nM and 1070 nM and 1020 nM
Human CD32a R131
  Kd: 1380 nM and 1290 nM and 1800 nM and 1130 nM
Human CD16a F158 [3]
  Kd: 773 nM and 634 nM and 693 nM and 620 nM
Cynomolgus CD16 [4]
  Kd: 203 nM and 205 nM and 204 nM
Human CLEC12A-His
  Kd: 1.81 nM
  koff: 0.0014 s⁻¹
  kon: 776000 M⁻¹ s⁻¹
mFc-hNKG2D
  Kd: 588 nM
  koff: 0.122 s⁻¹
  kon: 208000 M⁻¹ s⁻¹
Human CD16a V158
  Kd: 171 nM
  koff: 0.0199 s⁻¹
  kon: 117000 M⁻¹ s⁻¹
Human CD16a F158 [5]
  Kd: 680 nM
Cynomolgus CD16 [6]
  Kd: 204 nM

B3: AB0089 TriNKET (bispecific antibody, human IgG1, kappa)
chain: B1 chain with S53V, K56A, K71V, Y98G, D101G, S103T, R207D, I220F
heavy: B1 heavy
light: B1 light
notes: F3' format heterodimer of three chains; human IgG1 Fc with EW-RVT and Y349C/S354C mutations; also called AB0089 Lot AB0089-002; CLEC12A TriNKET AB0089
[7]
  Kd: 797 nM
  koff: 0.135 s⁻¹
  kon: 169000 M⁻¹ s⁻¹
[8]
  Kd: 322 nM
  koff: 0.0278 s⁻¹
  kon: 86400 M⁻¹ s⁻¹
[9]
  Kd: 0.9 nM
[10]
  Kd: 703 nM
  koff: 0.131 s⁻¹
  kon: 187000 M⁻¹ s⁻¹

B4: F3'-1602 TriNKET (other)
chain: B1 chain
heavy: B1 heavy
light: B1 light
notes: CLEC12A scFv-Fc, NKG2D A49MI Fab-Fc, human IgG1 Fc; also called AB0237
[11]
  fold difference in affinity vs trastuzumab: ≤ 3 fold
[12]
  fold difference in affinity vs trastuzumab: ≤ 3 fold
